Source: patent US20240109974A1 (SHANDONG SIMCERE BIOPHARMACEUTICAL, published 2024)

T1: human TNFR2 (Novoprotein, Cat #C830) (human, UniProt P20333 23-257, limits assumed)
T1 construct: construct not described; also called human TNFR2 protein
T1 sequence (looked up): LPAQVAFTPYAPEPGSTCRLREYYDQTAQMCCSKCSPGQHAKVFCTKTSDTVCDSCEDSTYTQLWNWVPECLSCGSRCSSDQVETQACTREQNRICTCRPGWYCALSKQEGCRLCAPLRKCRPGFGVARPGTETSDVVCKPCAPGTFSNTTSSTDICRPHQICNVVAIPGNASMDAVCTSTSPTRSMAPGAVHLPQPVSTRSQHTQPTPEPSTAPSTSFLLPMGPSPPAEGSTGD

T2: human TNFR2 on the surface of CHO-TNFR2 cells (human, UniProt P20333 23-461)
T2 construct: whole, on cells
T2 sequence (looked up): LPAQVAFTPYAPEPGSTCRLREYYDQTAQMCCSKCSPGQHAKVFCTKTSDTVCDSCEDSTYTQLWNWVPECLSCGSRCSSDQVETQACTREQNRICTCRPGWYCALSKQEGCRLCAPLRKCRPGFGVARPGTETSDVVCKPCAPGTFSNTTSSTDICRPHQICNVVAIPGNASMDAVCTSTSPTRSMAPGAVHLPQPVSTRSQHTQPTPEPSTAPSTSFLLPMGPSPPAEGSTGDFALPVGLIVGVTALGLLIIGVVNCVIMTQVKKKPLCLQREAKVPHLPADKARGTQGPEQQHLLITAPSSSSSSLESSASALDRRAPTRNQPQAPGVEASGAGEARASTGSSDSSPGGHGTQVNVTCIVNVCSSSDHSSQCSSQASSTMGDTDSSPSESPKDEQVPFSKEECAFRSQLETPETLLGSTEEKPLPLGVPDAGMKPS

T3: Human TNFR2-His (Sino 10417-H08H) (human, UniProt P20333 23-257)
T3 construct: Bought protein; also called recombinant human TNFR2 protein; not shown: His tag
T3 sequence (looked up): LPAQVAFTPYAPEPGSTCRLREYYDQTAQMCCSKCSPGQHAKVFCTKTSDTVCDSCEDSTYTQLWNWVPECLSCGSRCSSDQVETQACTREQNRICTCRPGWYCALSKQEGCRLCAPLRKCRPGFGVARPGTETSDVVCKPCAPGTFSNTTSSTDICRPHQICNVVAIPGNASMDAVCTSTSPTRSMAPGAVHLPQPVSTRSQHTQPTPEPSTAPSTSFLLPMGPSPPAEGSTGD


Columns and labels:
[1] = target: T1, human TNFR2 (Novoprotein, Cat #C830); assay: competition ELISA, competitor human TNFα-Biotin; AUC against 224-WT
Protocol: 1 μg/ml human TNFR2 (Novoprotein, Cat #C830) was pre-coated with 100 μl/well […] in an ELISA plate. All the test TNFR2 antibodies were subjected to 2.5-fold gradient dilution from the highest concentration of 30 μg/ml; the diluted antibodies were mixed with 15 ng/ml human TNFα-Biotin (Acro Biosystem, Cat #TNA-H82E3) in equal volume, respectively; the resulting mixture was added to the ELISA plate at 100 μl/well, and incubated with shaking at room temperature for 2.0 hours. The plate was washed, and then a Streptavidin-HRP working solution (diluted at 1:10000) was added at 100 μl/well, and the mixture was incubated with shaking at room temperature for 40 minutes. The plate was washed again, and then the substrate TMB of HRP was added to develop colour. A stop solution was added to stop the reaction, and then a microplate reader (MD 13) was used to read the absorbance value. The inhibitory curve of an antibody was drawn with antibody concentration as the abscissa and corresponding OD value as the ordinate, and fitted with four parameters (GraphPad Prism9) to calculate the IC50 value. The smaller the IC50 value, the stronger the ability of an antibody to inhibit the binding of human TNFα to human TNFR2. The blocking effect of a humanized antibody was normalized to its corresponding human-murine chimeric antibody WT. The higher the percentage value, the better the inhibitory effect of the humanized antibody.

[2] = target: T2, human TNFR2 on the surface of CHO-TNFR2 …; assay: flow cytometry on CHO-TNFR2 cells; AUC against 224-WT
Protocol: The transfected full-length plasmid of human TNFR2 was purchased from Sino Biological (Cat #HG10417-UT, NCBI Ref Seq: NM_001066.2). The experiment was conducted at a cell density within 80%. The cell medium was discarded; the cells were rinsed with PBS, and digested with 1 ml trypsin for 2 minutes; the digestion was stopped with a Ham's F12 complete medium containing 10% FBS, and then a cell suspension was made. The cell suspension was counted, and then an appropriate amount of cell suspension was centrifuged at 350×g; the supernatant was discarded; a corresponding volume of blocking solution (10% FBS+PBS) at a density of 1×10⁷ cells/ml was added to resuspend the cells, and the mixture was incubated at 4° C. for 30 minutes. After the incubation, the mixture was centrifuged at 350×g to remove the supernatant, and the cells were resuspended in a staining buffer (2% FBS+PBS) to a density of 2×10⁶ cells/ml, and spread onto a 96-well plate, with 50 μl of cell suspension added to each well for later use. The antibody was diluted with PBS for 10-fold gradient dilution from the highest concentration of 20 μg/m (twice the concentration); the diluted antibody was added to the well containing 50 μl of cell suspension, and placed on a microplate shaker for shaking at 500 rpm for 1 minute, so that the antibody was fully mixed with the cells; the mixture was incubated at 4° C. for 1 h. After the incubation, the cells were washed twice with the staining buffer, with 100 μl per well, and centrifuged at 350-g for 5 minutes, and the supernatant was discarded. The PE goat anti-Human IgG Fc antibody (ebioscience, Cat #12-4998-82) was diluted 250-fold with the staining buffer, with a volume of 100 μl per well added to the washed cell wells; the mixture was mixed evenly, and stained at 4° C. for 30 minutes. After the staining, similarly, the cells were washed twice with the staining buffer; finally, the cells were resuspended in 200 μl of staining buffer; signals were detected by a flow cytometer (Thermo Attune NxT). The stronger the signal, the stronger the binding ability of an antibody to TNFR2. The binding curve of an antibody was drawn with antibody concentration as the abscissa and corresponding mean fluorescence intensity (MFI) fold as the ordinate, and fitted with four parameters (GraphPad Prism9) to calculate the EC50 value.

[3] = target: T3, Human TNFR2-His (Sino 10417-H08H); assay: ELISA, human TNFR2-His coated; EC50 against 224-WT
Protocol: The test humanized antibody against TNFR2 (as described in Example 1, the antibody was comprised of variable regions linked to IgG-Fc; the WT chimeric antibody also adopted the IgG-Fc structure) was subjected to 3.33-fold gradient dilution, loaded with 100 μl/well, and incubated with shaking at room temperature for 1.5 hours. The plate was washed, and then a working solution of murine anti-human IgG Fc-HRP (diluted at 1:10000) was added, loaded with 100 μl/well, and incubated with shaking at room temperature for 1.0 hour. The plate was washed again, and then the substrate TMB of HRP was added to develop colour. A stop solution was added to stop the reaction, and then a microplate reader (MD 13) was used to read the absorbance value. The binding curve of an antibody was drawn with antibody concentration as the abscissa and corresponding OD value as the ordinate, and fitted with four parameters (GraphPad Prism9) to calculate the EC50 value. The smaller the EC50 value, the stronger the binding ability of an antibody to human/cynomolgus monkey TNFR2. The binding effect of a humanized antibody was normalized to its corresponding human-murine chimeric antibody WT (see SEQ ID NOs: 38-43 for the sequence). The higher the percentage value, the better the binding effect of the humanized antibody. The results of binding of an anti-TNFR2 antibody to a human TNFR2 protein are shown in FIG. 1 and Table 4, and the results of binding of an anti-TNFR2 antibody to cynomolgus monkey TNFR2 are shown in FIG. 2 and Table 4.

Row | % Relative activity (WT antibody/test antibody) [1] [%] | % Relative activity (Test antibody/WT antibody) [2] [%] | % Relative activity (WT antibody/test antibody) [3] [%] | Binder
1 | 98.8 | 96.2 | 143 | 224-Hu1 (antibody, V domains shown, Humanized form of #224; also called VH8 + VL6) VH: QVQLVQSGAEVKKPGASVKVSCKASGFNNKDIYMHWVRQAPGQGLEWIGRIDPATGNTKHDPKFQDRVTMTSDTSTNTVYMELSSLRSEDTAVYYCARSPYGDFGAMDYWGQGTLVTVSS VL: DIQMTQSPSSLSASVGDRVTITCTASSSVSSNYLHWYQQKPGKAPKLWIYSTSNLPSGVPSRFSGSGSGTDFTLTISSLQPEDFATYYCHQYHRSPWTFGQGTKVEIK
2 | 100 | 91 | 110 | 224-Hu7 (antibody, V domains shown, Humanized form of #224; also called VH9 + VL10) VH: QVQLVQSGSELKKPGASVKVSCKASGFNNKDIYMHWVRQAPGQGLEWMGRIDPATGNTKHDPKFQDKAVLSSDTSVSTAYLQISSLKAEDTAVYYCARSPYGDFGAMDYWGQGTLVTVSS VL: DIQMTQSPSSLSASVGDRVTITCTASSSVSSNYLHWYQQKPGKAPKLLIYSTSNLPSGVPSRFSGSGSGTDFTLTISSLQPEDFATYYCHQYHRSPWTFGQGTKVEIK
3 | 97.2 | 88.9 | 99.4 | 224-Hu5 (antibody, V domains shown, Humanized form of #224; also called VH9 + VL9) VH: QVQLVQSGSELKKPGASVKVSCKASGFNNKDIYMHWVRQAPGQGLEWMGRIDPATGNTKHDPKFQDKAVLSSDTSVSTAYLQISSLKAEDTAVYYCARSPYGDFGAMDYWGQGTLVTVSS VL: DIQMTQSPSSLSASVGDRVTITCTASSSVSSNYLHWYQQKPGKAPKLLIYSTSNLPSGVPSRFSGSGSGTDYSLTISSLQPEDFATYYCHQYHRSPWTFGQGTKVEIK
4 | 102 | 101 | 138 | 224-Hu2 (antibody, V domains shown, Humanized form of #224; also called VH9 + VL7) VH: QVQLVQSGSELKKPGASVKVSCKASGFNNKDIYMHWVRQAPGQGLEWMGRIDPATGNTKHDPKFQDKAVLSSDTSVSTAYLQISSLKAEDTAVYYCARSPYGDFGAMDYWGQGTLVTVSS VL: DIQMTQSPSSLSASVGDRVTITCTASSSVSSNYLHWYQQKPGSSPKLWIYSTSNLPSGVPSRFSGSGSGTDFTLTISSLQPEDFATYYCHQYHRSPWTFGQGTKVEIK
5 | 100 | 93.1 | 108 | 224-Hu4 (antibody, V domains shown, Humanized form of #224; also called VH9 + VL6) VH: QVQLVQSGSELKKPGASVKVSCKASGFNNKDIYMHWVRQAPGQGLEWMGRIDPATGNTKHDPKFQDKAVLSSDTSVSTAYLQISSLKAEDTAVYYCARSPYGDFGAMDYWGQGTLVTVSS VL: DIQMTQSPSSLSASVGDRVTITCTASSSVSSNYLHWYQQKPGKAPKLWIYSTSNLPSGVPSRFSGSGSGTDFTLTISSLQPEDFATYYCHQYHRSPWTFGQGTKVEIK
6 | 100 | 90.4 | 104 | 224-Hu6 (antibody, V domains shown, Humanized form of #224; also called VH8 + VL7) VH: QVQLVQSGAEVKKPGASVKVSCKASGFNNKDIYMHWVRQAPGQGLEWIGRIDPATGNTKHDPKFQDRVTMTSDTSTNTVYMELSSLRSEDTAVYYCARSPYGDFGAMDYWGQGTLVTVSS VL: DIQMTQSPSSLSASVGDRVTITCTASSSVSSNYLHWYQQKPGSSPKLWIYSTSNLPSGVPSRFSGSGSGTDFTLTISSLQPEDFATYYCHQYHRSPWTFGQGTKVEIK
7 | 98.2 | 101 | 122 | 224-Hu3 (antibody, V domains shown, Humanized form of #224; also called VH9 + VL8) VH: QVQLVQSGSELKKPGASVKVSCKASGFNNKDIYMHWVRQAPGQGLEWMGRIDPATGNTKHDPKFQDKAVLSSDTSVSTAYLQISSLKAEDTAVYYCARSPYGDFGAMDYWGQGTLVTVSS VL: DIQMTQSPSSLSASVGDRVTITCTASSSVSSNYLHWYQQKPGKAPKLLIYSTSNLPSGVPSRFSGSGSGTDFTLTISSLQAEDAATYYCHQYHRSPWTFGQGTKVEIK
